One substance from PMC5707514 can be followed below.

A value given as a limit tells only on which side of the number the result lay.

The assay has as its target Aβ(M1-42) (UniProt P05067). Kind of assay: fibrils trapped on a 0.2 μm filter, tryptic digest and MALDI-TOF MS; 1:1 mixture of ^15N-Aβ42 and ^14N-Aβ40 monomers, 3 μM total, 5 μM ThT, 37 °C; samples taken at the first and second ThT plateau, fibrils washed with Milli-Q water.

Chain of Aβ(M1-42) (P05067 671-713): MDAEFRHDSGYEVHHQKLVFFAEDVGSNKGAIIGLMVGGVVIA

Take “Aβ(M1-40) (from UniProt P05067 672-711) (peptide)”: the percent of Aβ40 contained in the fibrils at the first plateau is under 13%.
